Results as given in FireProtDB (doi:10.1021/bi051013y).

Settings: Pleurotus ostreatus, Thermal, whole UniProt chain shown
[1] = pH 6, 25 °C, Absorbance, Carbonate 10 mM, reversible: yes
[2] = pH 6, Absorbance, Carbonate 10 mM, reversible: yes
[3] = pH 6, absorbance, HEPES, transition: 2, reversible: YES
[4] = pH 8, 25 °C, Absorbance, HEPES 10 mM, reversible: yes
[5] = pH 8, Absorbance, HEPES 10 mM, reversible: yes
[6] = pH 8, absorbance, HEPES, transition: 2, reversible: YES
[7] = pH 9, Absorbance, Borate 10 mM, reversible: yes
[8] = pH 9, absorbance, HEPES, transition: 2, reversible: YES
[9] = pH 10, 25 °C, Absorbance, Carbonate 10 mM, reversible: yes
[10] = pH 10, Absorbance, Carbonate 10 mM, reversible: yes
[11] = pH 10, absorbance, HEPES, transition: 2, reversible: YES
[12] = pH 11, 25 °C, Absorbance, Carbonate 10 mM, reversible: yes
[13] = pH 11, Absorbance, Carbonate 10 mM, reversible: yes

B1: wild type, Q56QW9 (protein)
chain: AYAQWVIILIHNVGQQNVKIKNLNASWGKLYADGDKDTEVPASKYEGMVIAPGDQVQINACGREDAAEGTTGTFDLVDPNDSDKQVRHISWDCPWGTKANSWVVGGSNSKWMIEYTGQNLDSGALGTITVNTLKIGN
- heat capacity change of unfolding [1]: 2.87 kcal/mol/K
- unfolding enthalpy (van 't Hoff) [1]: 62.9 kcal/mol
- unfolding free energy [1]: 7.27 kcal/mol
- Tm [2]: 48.6 °C
- unfolding enthalpy (van 't Hoff) [2]: 130 kcal/mol
- Tm [3]: 48.6 °C
- unfolding enthalpy (van 't Hoff) [3]: 130 kcal/mol
- unfolding enthalpy (calorimetric) (pH 6, absorbance, HEPES): 62.9 kcal/mol
- unfolding free energy (pH 6, absorbance, HEPES): 7.27 kcal/mol
- Tm (pH 7, absorbance, HEPES, transition: 3, reversible: YES): 54.6 °C
- heat capacity change of unfolding [4]: 2.87 kcal/mol/K
- unfolding enthalpy (van 't Hoff) [4]: 64.5 kcal/mol
- unfolding free energy [4]: 8.94 kcal/mol
- Tm [5]: 51.2 °C
- unfolding enthalpy (van 't Hoff) [5]: 140 kcal/mol
- Tm [6]: 51.2 °C
- unfolding enthalpy (van 't Hoff) [6]: 140 kcal/mol
- unfolding enthalpy (calorimetric) (pH 8, absorbance, HEPES): 64.5 kcal/mol
- unfolding free energy (pH 8, absorbance, HEPES): 8.94 kcal/mol
- Tm [7]: 47.2 °C
- unfolding enthalpy (van 't Hoff) [7]: 130 kcal/mol
- Tm [8]: 47.2 °C
- unfolding enthalpy (van 't Hoff) [8]: 130 kcal/mol
- unfolding enthalpy (calorimetric) (pH 9, absorbance, HEPES): 66.2 kcal/mol
- unfolding free energy (pH 9, absorbance, HEPES): 7.05 kcal/mol
- heat capacity change of unfolding [9]: 2.87 kcal/mol/K
- unfolding enthalpy (van 't Hoff) [9]: 60.5 kcal/mol
- unfolding free energy [9]: 3.47 kcal/mol
- Tm [10]: 39.4 °C
- unfolding enthalpy (van 't Hoff) [10]: 102 kcal/mol
- Tm [11]: 39.4 °C
- unfolding enthalpy (van 't Hoff) [11]: 102 kcal/mol
- unfolding enthalpy (calorimetric) (pH 10, absorbance, HEPES): 60.5 kcal/mol
- unfolding free energy (pH 10, absorbance, HEPES): 3.47 kcal/mol
- heat capacity change of unfolding [12]: 2.87 kcal/mol/K
- unfolding enthalpy (van 't Hoff) [12]: 66.4 kcal/mol
- unfolding free energy [12]: 2.32 kcal/mol
- Tm [13]: 34.6 °C
- unfolding enthalpy (van 't Hoff) [13]: 93.9 kcal/mol
- unfolding enthalpy (calorimetric) (pH 11, absorbance, HEPES): 66.4 kcal/mol
- unfolding free energy (pH 11, absorbance, HEPES): 2.32 kcal/mol
